{
  "source": "paper doi:10.1101/2021.12.20.473401",
  "molecular_target": "SARS-CoV spike glycoprotein (S) (SARS-CoV) (UniProt P59594)",
  "assay": "SPR",
  "data": [
    {"substance": "VHH-72", "values": [
      {"measurement": "Kd", "result": 6.52, "unit": "nM"}
    ]}
  ]
}
